This is an account of results in paper PMC3742261, “Integrated Self-Assembly of the Mms6 Magnetosome Protein to Form an Iron-Responsive Structure” (International Journal of Molecular Sciences, 2013).

“And” between values parts separate entries of the source, which are not always exact repeats. Equal values may be shown once.

What is called stoichiometry N is the number of molecules, sites or subunits per partner or assembly.

The target of data set [1] is Mms6 (wild type, mature form, His-tagged) (Magnetospirillum magneticum strain AMB-1) (UniProt Q2W8R5). The data set can be described thus: SEC; Superose 12 column, protein loaded at 0.2 mg/mL, BC100 buffer (20 mM Tris, 100 mM KCl, pH 7.5), 4 °C; percent of total protein in the void volume by peak integration. (In gel filtration, larger molecules generally elute earlier.)

For data set [2], the target named is Mms6 I117G (Magnetospirillum magneticum strain AMB-1) (UniProt Q2W8R5). The data set is described as above.
Data set [3] addresses Mms6 L84A, L86A, L88A, L90A, L92A (GL repeat replaced with a GA repeat) (Magnetospirillum magneticum strain AMB-1) (UniProt Q2W8R5). The data set can be described thus: SEC; Superose 12 column, protein loaded at 1 mg/mL, 4 °C; percent of total protein in the void volume by peak integration.
Data set [4] shares this target. The data set can be described thus: SEC; Superose 12 column, protein loaded at 0.2 mg/mL, BC100 buffer (20 mM Tris, 100 mM KCl, pH 7.5), 4 °C; percent of total protein in the void volume by peak integration.
Data set [5] has as its target Mms6 L128G (Magnetospirillum magneticum strain AMB-1) (UniProt Q2W8R5). The data set is described as above.
Data set [6] has as its target Mms6 L132G (Magnetospirillum magneticum strain AMB-1) (UniProt Q2W8R5). The data set is described as above.
Data set [7] concerns the target Mms6 W79A (Magnetospirillum magneticum strain AMB-1) (UniProt Q2W8R5). The data set is described as above.
The target of data set [8] is Mms6 W79F (Magnetospirillum magneticum strain AMB-1) (UniProt Q2W8R5). Described as above.
Data set [9] concerns the target Mms6 W79F,W95F (Magnetospirillum magneticum strain AMB-1) (UniProt Q2W8R5). Described as above.
Data set [10] deals with Mms6 W95A (Magnetospirillum magneticum strain AMB-1) (UniProt Q2W8R5). The data set is described as above.
Data set [11] deals with Mms6 W95F (Magnetospirillum magneticum strain AMB-1) (UniProt Q2W8R5). The description is as above.
Data set [12] concerns the molecule itself. The data set can be described thus: SEC; Superdex Peptide 10/300 column, 80 micrograms C21Mms6, 10 mM Pi, pH 7.5; size from a standard curve.
Data set [13] concerns the molecule itself. In words: SEC; Superdex Peptide 10/300 column, 80 micrograms C21Mms6, 20 mM Tris, pH 7.5; size from a standard curve.
Data set [14] concerns the molecule itself. In words: SEC; Superdex Peptide 10/300 column, 80 micrograms C21Mms6, 10 mM Pi, 100 mM KCl, pH 7.5; size from a standard curve.
Data set [15] deals with the molecule itself. The data set can be described thus: SEC; Superdex Peptide 10/300 column, 80 micrograms C21Mms6, 20 mM Tris, 100 mM KCl, pH 7.5; size from a standard curve.
Data set [16] concerns the molecule itself. In words: SEC; Superdex Peptide 10/300 column, 80 micrograms C21Mms6, 50 mM Formate or Citrate, pH 3; size from a standard curve.
Data set [17] deals with the molecule itself. The data set can be described thus: SEC; Superdex Peptide 10/300 column, 80 micrograms C21Mms6, 20 mM Tris, 1.5 or 3 M KCl, pH 7.5; size from a standard curve.
Data set [18] deals with the molecule itself. The data set can be described thus: SEC; Superdex Peptide 10/300 column, 80 micrograms C21Mms6, 50 mM Formate or Citrate, pH 3 with FeCl3:protein = 8:1; size from a standard curve.

As to “Mms6 (wild type, mature form, His-tagged) (from UniProt Q2W8R5 1-133) (natural protein)”, the % protein in Vo in data set [1] is 100%.
For the molecule “Mms6 I117G (from UniProt Q2W8R5 1-133) (natural protein)”, in data set [2], the % protein in Vo is 94% and 95%.
Turning to “Mms6 L84A, L86A, L88A, L90A, L92A (GL repeat replaced with a GA repeat) (from UniProt Q2W8R5 1-133) (natural protein)”, the % protein in Vo in data set [3] was 55%; in data set [4], 46% and 54%.
For “Mms6 L128G (from UniProt Q2W8R5 1-133) (natural protein)”, the % protein in Vo in data set [5] was 63% and 86%.
“Mms6 L132G (from UniProt Q2W8R5 1-133) (natural protein)”: in data set [6], the % protein in Vo was 29% and 37%.
In the case of “Mms6 W79A (from UniProt Q2W8R5 1-133) (natural protein)”, in [7], the % protein in Vo was 79% and 83%.
Turning to “Mms6 W79F (from UniProt Q2W8R5 1-133) (natural protein)”, the % protein in Vo in data set [8] was determined as 96%.
For the molecule “Mms6 W79F,W95F (from UniProt Q2W8R5 1-133) (natural protein)”, the % protein in Vo in data set [9] is 75% and 82%.
Take “Mms6 W95A (from UniProt Q2W8R5 1-133) (natural protein)”: in [10], the % protein in Vo was 49% and 70%.
In turn, “Mms6 W95F (from UniProt Q2W8R5 1-133) (natural protein)” registered a % protein in Vo in [11] of 97%.

B1: C21Mms6 (synthetic peptide of the C-terminal 21 amino acids of Mms6) (peptide, UniProt Q2W8R5 113-133, looked up)
peptide: KSRDIESAQSDEEVELRDALA
notes: Mms6, Magnetospirillum magneticum AMB-1, C-terminal 21 amino acids; also called synthetic 21 amino acid peptide C-terminal domain; source: synthetic peptide, ordered from GenScript
As to B1, the “stoichiometry N” value was 7.3 C21Mms6 units/multimer in [12]; 2 C21Mms6 units/multimer in [13]; 4 C21Mms6 units/multimer in data set [14]; 4.1 C21Mms6 units/multimer in [15]; 2 C21Mms6 units/multimer in data set [16]; 1.8 C21Mms6 units/multimer in [17]. The “stoichiometry N” value in data set [18] was 2.1 C21Mms6 units/multimer.
